Assay results taken from patent US20150111821A1.

Biological target: FGF receptors
Test: cell-based or functional assay

FGFR signaling (phosphorylation of downstream ERK and AKT pathways, Western blot, HEK293 cells): 100 fold
Substance: FGF1^ΔNT (10-140αα) (SEQ ID NO: 7), N-terminally truncated FGF1 (from UniProt P05230 25-155) (ligand; the values are: fold reduction in signaling)
